Assay results from patent US20250145729A1 (DENALI THERAPEUTICS, published 2025).

T1: circularly permuted human TfR apical domain (human)
T1 construct: TfR residues 326-379 stand N-terminal to 194-296, loop 297-325 deleted; also called huTfR Apical Domain
T1 chain: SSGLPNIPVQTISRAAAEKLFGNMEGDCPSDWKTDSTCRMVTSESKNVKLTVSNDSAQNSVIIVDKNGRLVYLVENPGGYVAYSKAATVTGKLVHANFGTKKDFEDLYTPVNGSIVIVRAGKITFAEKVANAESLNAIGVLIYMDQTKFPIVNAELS

T2: circularly permuted cyno TfR apical domain (cynomolgus monkey)
T2 construct: same design as the human construct; also called cyTfR Apical Domain; cynomolgus TfR apical domain
T2 chain: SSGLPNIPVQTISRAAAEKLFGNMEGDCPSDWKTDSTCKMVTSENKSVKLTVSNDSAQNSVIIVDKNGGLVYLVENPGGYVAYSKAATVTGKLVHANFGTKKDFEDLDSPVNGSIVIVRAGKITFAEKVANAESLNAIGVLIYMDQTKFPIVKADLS

T3: human CD98hc (human, UniProt P08195 109-529)
T3 construct: also called huCD98hc; CD98 heavy chain
T3 sequence: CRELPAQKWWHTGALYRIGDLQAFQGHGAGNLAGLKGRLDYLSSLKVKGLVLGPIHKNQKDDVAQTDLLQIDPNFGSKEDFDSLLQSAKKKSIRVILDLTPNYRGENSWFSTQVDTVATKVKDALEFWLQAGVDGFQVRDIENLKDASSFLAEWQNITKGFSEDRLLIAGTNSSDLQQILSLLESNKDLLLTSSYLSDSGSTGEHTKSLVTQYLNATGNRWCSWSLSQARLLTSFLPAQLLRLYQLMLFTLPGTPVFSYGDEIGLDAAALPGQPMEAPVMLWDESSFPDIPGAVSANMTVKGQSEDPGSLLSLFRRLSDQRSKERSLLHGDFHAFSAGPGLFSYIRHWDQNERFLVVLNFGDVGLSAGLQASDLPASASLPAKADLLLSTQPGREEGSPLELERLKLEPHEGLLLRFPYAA


Key:
[1] = biological target: T1, circularly permuted human TfR apical …; assay: SPR, supernatant, anti-Fab capture
Procedure: (§1) Clones were expressed in HEK293 cells. Supernatants were captured for SPR by GE Healthcare anti-human Fab capture kit and the affinity to human and cyno TfR apical domain was measured (Table 30). The clones in Table 30 were bivalent and each TfR-binding Fc polypeptide also contained P329G and LALA mutations.

[2] = biological target: T2, circularly permuted cyno TfR apical …; assay: SPR, supernatant, anti-Fab capture
Procedure: as §1

human CD98hc = biological target: T3, human CD98hc; assay: SPR (Biacore)
Procedure, shortened: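 Engineered Fc polypeptides, made as Fc-Fab fusions with anti-BACE1 Fabs, were assessed for Kd toward CD98hc. Measurements were taken by surface plasmon resonance with a Biacore instrument, in a bivalent format or in a monovalent knob/hole format whose CD98hc-binding site sat on the knob chain alone.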

| Kd [1] [nM] | Kd [2] [nM] | Kd (human CD98hc) [nM] | Binder |
| --- | --- | --- | --- |
| 924 | 9340 | – | 42.8.196 (Fc fusion, bivalent; P329G+LALA) APEAAGGPSVFLFPPKPKDTLMISRTPEVTCVVVDVSHEDPEVKFNWYVDGVEVHNAKTKPREEQYNSTYRVVSVLTVLHQDWLNGKEYKCKVSNKALGAPIEKTISKAKGQPREPQVYTLPPSRDELTKNQVSLTCLVKGFYPSDIAVEWFYEAQKLNNYKTTPPVLDSDGSFFLYSKLTVDKSRWQQGNLFACEVMHEALHNHYTYKLLSLSPGK |
| 505 | 6210 | – | 42.8.200 (Fc fusion, bivalent; P329G+LALA) APEAAGGPSVFLFPPKPKDTLMISRTPEVTCVVVDVSHEDPEVKFNWYVDGVEVHNAKTKPREEQYNSTYRVVSVLTVLHQDWLNGKEYKCKVSNKALGAPIEKTISKAKGQPREPQVYTLPPSRDELTKNQVSLTCLVKGFYPSDIAVEWFYEASKETNYKTTPPVLDSDGSFFLYSKLTVDKSRWQQGNLFACEVMHEALHNHYTYKLLSLSPGK |
| 966 | 10700 | – | 42.8.211 (Fc fusion, bivalent; P329G+LALA) APEAAGGPSVFLFPPKPKDTLMISRTPEVTCVVVDVSHEDPEVKFNWYVDGVEVHNAKTKPREEQYNSTYRVVSVLTVLHQDWLNGKEYKCKVSNKALGAPIEKTISKAKGQPREPQVYTLPPSRDELTKNQVSLTCLVKGFYPSDIAVEWFYEDSKENNYKTTPPVLDSDGSFFLYSKLTVDKSRWQQGNLFACEVMHEALHNHYTYKLLSLSPGK |
| 1130 | 11400 | – | 42.8.205 (Fc fusion, bivalent; P329G+LALA) APEAAGGPSVFLFPPKPKDTLMISRTPEVTCVVVDVSHEDPEVKFNWYVDGVEVHNAKTKPREEQYNSTYRVVSVLTVLHQDWLNGKEYKCKVSNKALGAPIEKTISKAKGQPREPQVYTLPPSRDELTKNQVSLTCLVKGFYPSDIAVEWFYEDQKENNYKTTPPVLDSDGSFFLYSKLTVDKSRWQQGNLFACEVMHEALHNHYTYKLLSLSPGK |
| 427 | 6090 | – | 42.8.214 (Fc fusion, bivalent; P329G+LALA) APEAAGGPSVFLFPPKPKDTLMISRTPEVTCVVVDVSHEDPEVKFNWYVDGVEVHNAKTKPREEQYNSTYRVVSVLTVLHQDWLNGKEYKCKVSNKALGAPIEKTISKAKGQPREPQVYTLPPSRDELTKNQVSLTCLVKGFYPSDIAVEWFYEDSKLNNYKTTPPVLDSDGSFFLYSKLTVDKSRWQQGNLFACEVMHEALHNHYTYKLLSLSPGK |
| 380 | 6030 | – | 42.8.209 (Fc fusion, bivalent; P329G+LALA) APEAAGGPSVFLFPPKPKDTLMISRTPEVTCVVVDVSHEDPEVKFNWYVDGVEVHNAKTKPREEQYNSTYRVVSVLTVLHQDWLNGKEYKCKVSNKALGAPIEKTISKAKGQPREPQVYTLPPSRDELTKNQVSLTCLVKGFYPSDIAVEWFYEDQKLTNYKTTPPVLDSDGSFFLYSKLTVDKSRWQQGNLFACEVMHEALHNHYTYKLLSLSPGK |
| 827 | 10800 | – | 42.8.206 (Fc fusion, bivalent; P329G+LALA) APEAAGGPSVFLFPPKPKDTLMISRTPEVTCVVVDVSHEDPEVKFNWYVDGVEVHNAKTKPREEQYNSTYRVVSVLTVLHQDWLNGKEYKCKVSNKALGAPIEKTISKAKGQPREPQVYTLPPSRDELTKNQVSLTCLVKGFYPSDIAVEWFYEDQKETNYKTTPPVLDSDGSFFLYSKLTVDKSRWQQGNLFACEVMHEALHNHYTYKLLSLSPGK |
| 394 | 5460 | – | 42.8.203 (Fc fusion, bivalent; P329G+LALA) APEAAGGPSVFLFPPKPKDTLMISRTPEVTCVVVDVSHEDPEVKFNWYVDGVEVHNAKTKPREEQYNSTYRVVSVLTVLHQDWLNGKEYKCKVSNKALGAPIEKTISKAKGQPREPQVYTLPPSRDELTKNQVSLTCLVKGFYPSDIAVEWFYEASKLTNYKTTPPVLDSDGSFFLYSKLTVDKSRWQQGNLFACEVMHEALHNHYTYKLLSLSPGK |
| 841 | 12200 | – | 42.8.198 (Fc fusion, bivalent; P329G+LALA) APEAAGGPSVFLFPPKPKDTLMISRTPEVTCVVVDVSHEDPEVKFNWYVDGVEVHNAKTKPREEQYNSTYRVVSVLTVLHQDWLNGKEYKCKVSNKALGAPIEKTISKAKGQPREPQVYTLPPSRDELTKNQVSLTCLVKGFYPSDIAVEWFYEAQKLSNYKTTPPVLDSDGSFFLYSKLTVDKSRWQQGNLFACEVMHEALHNHYTYKLLSLSPGK |
| 293 | 4940 | – | 42.8.215 (Fc fusion, bivalent; P329G+LALA) APEAAGGPSVFLFPPKPKDTLMISRTPEVTCVVVDVSHEDPEVKFNWYVDGVEVHNAKTKPREEQYNSTYRVVSVLTVLHQDWLNGKEYKCKVSNKALGAPIEKTISKAKGQPREPQVYTLPPSRDELTKNQVSLTCLVKGFYPSDIAVEWFYEDSKLTNYKTTPPVLDSDGSFFLYSKLTVDKSRWQQGNLFACEVMHEALHNHYTYKLLSLSPGK |
| – | – | 1300 | LLB2-2 (Fc fusion, Fc part only) APELLGGPSVFLFPPKPKDTLMISRTPEVTCVVVDVSHEDPEVKFNWYVDGVEVHNAKTKPREEQYNSTYRVVSVLTVLHQDWLNGKEYKCKVSNKALPAPIEKTISKAKGQPREPQVYTLPPSRDELTKNQVSLTCLVKGFYPSDIAVIWNSRFSLENNYKTTPPVLDSDGSFFLYSKLTVDKSRWQQGNIFACNVLHEALHNHYTFKNLSLSPGK |
| – | – | 9200 | LLB2-19 (Fc fusion, Fc part only) APELLGGPSVFLFPPKPKDTLMISRTPEVTCVVVDVSHEDPEVKFNWYVDGVEVHNAKTKPREEQYNSTYRVVSVLTVLHQDWLNGKEYKCKVSNKALPAPIEKTISKAKGQPREPQVYTLPPSRDELTKNQVSLTCLVKGFYPSDIVVLWNSRFSLEANVKTTPPVLDSDGSFFLYSKLTVDKSRWQQGQIFACNVLHEALHNHVTFKNLVLSPGK |
| – | – | 3600 | LLB2-7 (Fc fusion, Fc part only) APELLGGPSVFLFPPKPKDTLMISRTPEVTCVVVDVSHEDPEVKFNWYVDGVEVHNAKTKPREEQYNSTYRVVSVLTVLHQDWLNGKEYKCKVSNKALPAPIEKTISKAKGQPREPQVYTLPPSRDELTKNQVSLTCLVKGFYPSDIAVLWNSRYSLENNYKTTPPVLDSDGSFFLYSKLTVDKSRWQQGNIFACNVLHEALHNHYTFKNLSLSPGK |
| – | – | 1200 | LLB2-3 (Fc fusion, Fc part only) APELLGGPSVFLFPPKPKDTLMISRTPEVTCVVVDVSHEDPEVKFNWYVDGVEVHNAKTKPREEQYNSTYRVVSVLTVLHQDWLNGKEYKCKVSNKALPAPIEKTISKAKGQPREPQVYTLPPSRDELTKNQVSLTCLVKGFYPSDIAVMWNSRFSLENNYKTTPPVLDSDGSFFLYSKLTVDKSRWQQGNIFACNVLHEALHNHYTFKNLSLSPGK |
| – | – | 1700 | LLB2-4 (Fc fusion, Fc part only) APELLGGPSVFLFPPKPKDTLMISRTPEVTCVVVDVSHEDPEVKFNWYVDGVEVHNAKTKPREEQYNSTYRVVSVLTVLHQDWLNGKEYKCKVSNKALPAPIEKTISKAKGQPREPQVYTLPPSRDELTKNQVSLTCLVKGFYPSDIAVLWSSRFSLENNYKTTPPVLDSDGSFFLYSKLTVDKSRWQQGNIFACNVLHEALHNHYTFKNLSLSPGK |
| – | – | 1900 | LLB2-5 (Fc fusion, Fc part only) APELLGGPSVFLFPPKPKDTLMISRTPEVTCVVVDVSHEDPEVKFNWYVDGVEVHNAKTKPREEQYNSTYRVVSVLTVLHQDWLNGKEYKCKVSNKALPAPIEKTISKAKGQPREPQVYTLPPSRDELTKNQVSLTCLVKGFYPSDIAVLWNSKFSLENNYKTTPPVLDSDGSFFLYSKLTVDKSRWQQGNIFACNVLHEALHNHYTFKNLSLSPGK |
